What all share (conditions): both partners purified
For experiment [1], the target named is H1 hemagglutinin (A/New Caledonia/20/1999(H1N1)), recombinant HA trimer used for electron microscopy (influenza A virus A/New …, UniProt Q6WG00). Description: cryo-EM structure.
Experiment [2] deals with biotinylated H1 A/Michigan/45/2015 (MI15) HA ectodomain (Influenza A virus A/Michigan/45/2015 …, UniProt A0A1J0CXU0, strain, biotin (site not stated)). Briefly: BLI; Octet Red384; […]; Fab at 1600, 400, 100 and 25 nM; PBS + 1% BSA; 180 s association, 300 s dissociation. Background: BLI is a label-free optical method that tracks binding on a fibre tip over time.
The target of experiment [3] is T1, biotinylated H1 A/NewCaledonia/20/1999 (NC99) HA ectodomain (Influenza A virus A/New …, UniProt Q6WG00, strain, biotin (site not stated)). The experiment is described as above.
The target of experiment [4] is T1, biotinylated H1 A/NewCaledonia/20/1999 …. Description: […] (MSD) binding assay; […].

B1: 1-1-1F05 Fab (Fab, V domains shown)
VH: QVQLQESGPGLVKPSATLSLTCTLSGGSLSTHYWSWIRQPPGKGLEYIGNIHYSGSTNYNPSLRSRVTISVGTSKNQFSLKLTSVTAADTAVYYCARDAPYSDFLSGVETGWFDPWGQGTLVIVSS
VL: EIVMTQSPATLSVSPGERATLSCRASQSVSSNLAWYQQKPGQAPRLLIYGASTRATGIPARFSGSGSGTDFTLTISSLQSEDFAVYSCQQYNNWPWTFGQGTKVEIK
notes: source: Expi293, transfected, IgG purified (Protein A); Fab by papain digestion, SEC
Take B1: the binding result in experiment [1] is on record as “binds”.

B2: 1-1-1E04 Fab (Fab, V domains shown)
VH: QVQLVQSGAQLRKPGSSVTVSCKASGDTFNSYSIHWVRQAPGQGLEWMGRIIPVFGMTHYAQRFRGRITVSADKSTRTAYMELTSLTSADTAMYYCARDGGDKFHSSGHFETNQGYFDHWGQGALVTVSS
VL: QSVLTQPPSVSGAPGQRVTVSCTGSSSNLGATYEVHWYQQFPGTAPKLLIYGSTNRPSGVPERFSGSKSGTSASLTITGLQAEDEADYYCQSYDTSLRGFYVFGTGTKVTVL
notes: Parent IgG1
Regarding B2, the binding result in experiment [1] is “binds”.

B3: 2-2-1G06 Fab (Fab, V domains shown)
VH: QVQLRESGPGLVKPSQTLSLTCTVSGDSISNGGLYWNWIRQRPGRGLEWIGYIYYNGVTTYNPSLRSRIAISLETAKNQLSLRLSSVSAADTAIYYCAREGWVPDYGGRNYYLDFWGQGTLVTVSS
VL: DIQMTQSPSSLSASVGDRVTITCRASHNIQNFLNWYQQKPGKAPKLLIYAASTLQSGVPSRFSGSGSRTDFTLTISSLQPEDFAAYYCQQSYGLPRTFGQGTRLEIK
On to B3, for which the binding result in experiment [1], in experiment [2] and in experiment [3] was “binds” throughout.

B4: 2-2-1G06 monoclonal antibody (IgG1) (antibody, V domains shown)
VH: B3 VH
VL: B3 VL
notes: IgG1; copies: 2 + 2
For B4, the binding result in experiment [4] was “binds”.

The values are drawn from article doi:10.1101/2023.08.23.554525 (bioRxiv, 2023).
